Test: yeast display, Sf9 membrane polyspecificity reagent, FACS + sequencing; frameworks hold sequencing errors
Procedure, shortened: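 In a synthetic yeast display library (Saccharomyces cerevisiae BJ5465), nanobody expression was induced with galactose for 36–48 hours. FACS gates were set low and high (top ~1%) using anti-HA fluorescence for expression and streptavidin fluorescence for binding of the Sf9 membrane reagent. Each polyreactivity label is drawn from the gate of origin.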

| Sequence | polyreactivity (PSR sort gate) |
| --- | --- |
| QVQLEESVGGLVQAGGSLRIICAASGSIFSVNSIGWSRQAPGKERELVAAITRDSGSTNYADSVKGRFTISRDNAKNTVYLQMNSLKPEDTAVYYCAADFYYNVSTTIVNFSYDYWGHGTQVTVSS | high polyreactivity |
| QVQLEETGGGLVHAGGILRLSCAASGIIYVVNAMGWYRQAPAKERELVAAISRNGGSTYYADSVKGRFTISRDNAKNTVYLQMNSLIPEDTAVYYCADRTVGRNAGFDYWGQVTQVTVSS | high polyreactivity |
| QVQLESGGGLVQAGGSLRISCAASGSTFVTYDMGWDRQAPGKEREIVAAIDWSGDSTYADSVKGRFTISRDNAKNTVYLQMNSLIPEDTAVYSCAADYDNYGDVYPYYTAGYGYWGQGTQVTVSS | low polyreactivity |
| QVQLEVSGGVLVQPGGSIRLSCAASGFIFGFYAKGWYRQAPGKERELVASISGRGGRTSYADSVKGRFTISRDNAKNTVYLQMNSLKPEDTAVYYCNKAGYGVSRKYDYWGQGTQVNVSS | high polyreactivity |
| QVQLGDSGGGLVQAGGSLRLICAASGLTIPDNTMGWYRQAPGKERELVSAIDWSGGGTDYADSVKGRFTISRDNAKNTVYLQMNSLYPVDTAVYYCATSWYIYPYDDWGQGTQVTVSS | low polyreactivity |
| QVQLGESAGGLVQAGGSLRLSCAASGFTFYPYAMGWYRQAPGKEREFVAAITWRGASTYYADSVKGRFTISRDNGKNTVYLQMNSLKPEDTAVYYCNARWRVPRGYDYWGQGTQVTVSS | high polyreactivity |
| QVQLGESGGALVQAGGSLRLSCAASGFTFKYYAMGWYRQAPGKERELVAAISRGGSTYYADSVKGRFTISRDNAKNTVYLQMNILKPEDTAVYYCAARYVRVGYDYWGQGTQVTVSS | high polyreactivity |
| QVQLGESGGGFVQAGGSLRLSCAASGFIFAPYAMGWYRHAPGKERELDAFISWSGGRTYYADSVKGRFTLSRDKAKNTVYLLMNSLNPEDTAVYYCNARGSRRGGPGYEYWGQGTQVTVSS | high polyreactivity |
| QVQLGESGGGLVHAGGSLRLSCAASGFIFGYYAMGWYRQAPGKERELVAAISQSTGSTYYADSVKGRFTISRDTAKNTVYLQMNSLKPEATAVYYCNAEGPEFTTWGYVYWAWGYGYWGQGTQVTVSS | low polyreactivity |
| QVQLGESGGGLVLAGGSLRLSCAASGYDMGWYRHAPGKESELVAAISRGGSTSYADSVKGRFTISRDNAKNTVYLQMNSLKPEDTAVYYCAARYGSYRVGYDYWGQGTQVTVSS | low polyreactivity |
| QVQLGESGGGLVLAGGSLRLSCAASGYIFRAYAMGWYRQAPGKERELVAAISSRGGSTYYADSVKGRFTSSRDYAKNTVYLQMNSLKPEDTEVYYCAAAYRQPYIGYGYWGQGTQVTVSS | high polyreactivity |
| QVQLGESGGGLVQAGGRLRLRCAASGIIFTKYAMGLYRQAPGKERELVAAITASGGSTYYADSVKGRFTISRDTAKNTVYLQMNSLKPEDTAVYYCAARSPSRYGYWGQGTQVTVSS | high polyreactivity |
| QVQLGESGGGLVQAGGSIRLSCAASGRTFYGYAMGWYRQAPGTERELVAAISYSGARTYYADSVKGRFTISRDNAKHTVNLQMNSLKPEDTAVYYCAATRAYWIGHLDYWGQGTQVTVSS | high polyreactivity |
| QVQLGESGGGLVQAGGSLRLICAASGSTTPGNAMGWYRQAPGKQREFDADINSGGGTNYADSVKGRFTISRDNAKNNVYLQMNSLKPEDTAVYYCAKGYRRSFIGYWYLKYGYWGQGTQVTVSS | high polyreactivity |
| QVQLGESGGGLVQAGGSLRLRCAASGSNFRTYVMGWYRQGPGKERELVAAISRRGGSTYYADSVKGRFTISRDNAKNTVYLPMNSLKPEDTAVYNCAAEDEYSLEYSTLDYWGQGTQVTVSS | high polyreactivity |
| QVQLGESGGGLVQAGGSLRLSCAASGFTFYRYTLGWYRQAPGKERELVASITRRGGSTYYADSVKGRFTISRDNAKNYVYLQMNSLKPEDTAVYDCNAATPVWQSGTYEYWGQGTQVTVSS | high polyreactivity |
| QVQLGESGGGLVQAGGSLRLSCAASGGILYWYAMGWYRQAPGKERELVAAIDGTGGSTYYADSVKGRFTISRDNAKNTVYFQMYSLRPEDTEVYYCDATRPSIVTGNVKNGYWGHGTQVTVSS | low polyreactivity |
| QVQLGESGGGLVQAGGSLRLSCAASGLIIFSYAMGWSRQAPGKELEMVAAISRSGGRTYFADSVKGRFTISRDNAKNTVFLQMNRLKPEDTAVYYCAADDPYTPQYPDVTYDFWGQGTQVTVSS | high polyreactivity |
| QVQLGESGGGLVQAGGSLRLSCAASGNTFFTYAMGWYRQAPGKERELVAVITSVGSTNYADSVKGRFTISRDNAKNTVYLQMNSLKPEDTAVYYCAARTRRGLARYDYWGHGTQVTVSS | high polyreactivity |
| QVQLGESGGGLVQAGGSLRLSCAASGRIFISKTMGWSRQAPGKERELVAAITSSGRTYYADSVKGRFTISRDNAMNTVFFQMNSGKPEDTADYYCAADSYSGNDRRRGFDYWGQGTQVTVSS | low polyreactivity |
| QVQLGESGGGLVQAGGSLRLSCAASGRIFRVNTMGWYRQAPGKERELVAAIRSSGTRTYYAVSVKGRFTISRDNAKNTVYLQMNSLKPEDTAVYYCAATGRRGSGYYYWGQGTQVTVSS | high polyreactivity |
| QVQLGESGGGLVQAGGSLRLSCAASGRIFRYYAMGWYRQAPGKERELVAAISSSGGSTYYADSVKGRFTISRDNAKNTVYLQMNSLKPEDTAVYYCNTVGSVGKKRDYWGQGTQVTVSS | high polyreactivity |

| Sequence | polyreactivity (PSR sort gate) |
| --- | --- |
| QVQLGESGGGLVQAGGSLRLSCAASGRIFSYNAMRWYRPAPGKERELVAGITSGGRTYYADSVKGRFTISRDNAKNTVYLQMNSLKPEDTAVYYCAARYVPARTRYYFWGQGSQVTVSS | high polyreactivity |
| QVQLGESGGGLVQAGGSLRLSCAASGRIFVYNAMGWYRQAPGKERQLVAAIRNDGSTNYADSVKGRFTISRDNAKNTVYFQMNSLKPEDTAVYYCAKSVTGWRGLWYTPRNYYWGQGTQVTVSS | high polyreactivity |
| QVQLGESGGGLVQAGGSLRLSCAASGRIFYLNAMGWYRQAPGKERELVAVITGNAGCTYYADSVKGRFTISRDHAKNTVYLQMNSLKPEDTAVYYCNALRLVPWSDALYDYWGQGTQVTVSS | low polyreactivity |
| QVQLGESGGGLVQAGGSLRLSCAASGRIVRFYAMGWYRQAPGKERELVATISRSGGSTYYADSVKGRFTISRDNAKNTVNIQMNSLKPEDTAVYYCARLVGSRYGHWGQGTQVTVSS | high polyreactivity |
| QVQLGESGGGLVQAGGSLRLSCAASGRTFGLYAMGWYRQAPGKERELVAAISWGGGRTYYADSVKGRFTISRDNAKNTVYLQMNSLKPEDTAVYYCNAVYSPRYYVGGYDYWGQVTQVTVSS | high polyreactivity |
| QVQLGESGGGLVQAGGSLRLSCAASGRTFHGYAMGWYRQAPGKERELVARINWSDGRTYYADSVKGRFTISRDNAKNTVYLQMNSLKPEDTAVYYCAADKTVSYAPAWYYYWGQGTQVTVSS | low polyreactivity |
| QVQLGESGGGLVQAGGSLRLSCAASGRTFVDNHMGWYRQAPGKERELVAAITWRGGGTYYADSVKGRFTISRYNAKNTVYLQMNSLKPEDTAVYYSAADQRPPFVEPRGLSTGEFDYWGQGTQVTVSS | low polyreactivity |
| QVQLGESGGGLVQAGGSLRLSCAASGSIFEVYAMGWYRQAPGKERELVAAINYTGGSTYYADSVKGRFTISRDNAKNTVYLQMNSLKPEDTAVYYCARDTSGIGTRYDYWGQGTQVTLSS | low polyreactivity |
| QVQLGESGGGLVQAGGSLRLSCAASGSTFPVYAMGWSRQAPGKEWELVAAISSGGTTNYADSVKGRFTISRDNAKNTVYLQRNSLKPEDTAVYYCAADDWYYHFLVSSSAFDYWGQGTQVTVSS | high polyreactivity |
| QVQLGESGGGLVQAGGSLRLSCAASGSTFVWYAMGWYRQAPGKERELVANISGSGGSTYYADSVKGRFTISRDNAKNTVYLQMNSLKPEDNAVYYCAAQRQWRTQYDDDYWGQGTQVTVSS | low polyreactivity |
| QVQLGESGGGLVQAGGSLRLSCAASGTIYGYVMGWYRQAPGKERVLVAAISSSGGSTYYADSVKGRFTISRDNAKNTVYLQMNSLKPEDTAVYYCAKGLTYARRYGYWGQRTQVTVSS | high polyreactivity |
| QVQLGESGGGLVQAGGSLRLSCAASGYIFAYYAMGWSRQAPGKERELVAAISRSGGSTYYADSVKGRFTISRDNAKNTVYLEMISLKPEDTAVSYCAARSTGNYEREYNYWGQGTQVTVSS | high polyreactivity |
| QVQLGESGGGLVQAGGSLRLTCAASGIIFPYYAMGWYRQATGKERELVAGISSSGGITYADSVKGRFTISRDNGKNTVYLQMNSLKPEDTAVYYCNAEYQWLEYDYCGQGTQVTVSS | low polyreactivity |
| QVQLGESGGGLVQAGGSLRLTCAASGITFAYYVMGWYRKAPGKERELVAASTRSGDFTSYADSVKGRFTISRDNAKNTVYFQMNSLKPEDTAVYYCNARRGYQSRRYNYWGQGTQVTVSS | high polyreactivity |
| QVQLGESGGGLVQAGGSLRLTCAASGITFGPYAMGWSRQAPGKERELVAAITWRGGSTYYADSVKGRFTISRDNAKNTVYLQMNSLKPEDTAVYYCNAKTEYGSPRGYGSWGQGTQVTVSS | low polyreactivity |
| QVQLGESGGGLVQAGGSLRVICAASGFIFRDYAMGWYIQAPGKERELFAAIRSTTGSTYYADSVKGRFTISRDNSKNTVYLQMNSLKPEDTAVYYCAAAYPFYADMDYSGQGTQVTVSS | low polyreactivity |
| QVQLGESGGGLVQAGGSRRFSSAASGSIVKAYAMGWYRPAPGKDRELVAAISTSDGSTYYADSVKGRFTISRDNAKNTVYLQMNSLKPEDTAVYYCATEYDYWDDSYDSWGQGTQVTVSS | low polyreactivity |
| QVQLGESGGGLVQAGRSLRLSCAASGSTIGPDAMGWYRQAPGTERELVAAIRYSSVRTYYADSVKGRFTISRDNAKNSVYVQMNSLKPEDTAVYYCNAVFWSYTVWGRSDYWGQGTQVTVSS | low polyreactivity |
| QVQLGESGGGLVQAGVSLRLSCAASGSLFYHNAMGWYRHAPGKERELVAAISGRGGSTYYADSVKGRFTISRDNAKNTVYLQMNSLKPEDTAVYYCAADARYQNGGLYYWGQGTQVTVSS | high polyreactivity |
| QVQLGESGGGLVQSGGSLRLSCAASGRIFDLNAMGWYRPAPGKERELVAAISYSDGSTYYADSVKGRFTISRDNEKNTVYLQMNSLKTEDTAVYYCAADFFDRTYITWYEYWGQGTQVTVSS | high polyreactivity |
| QVQLGESGGVLVQAGGSLRLSCAASGRIFSENAMGWYRQATGKEWELVAAITGNGGDTYYADSVKGRFTISRDTAKNTVYLQMNSLKPEDTAVYYCAAETGGLGGDYWGQGTQVTVSS | low polyreactivity |

From the nanobody polyreactivity screen of Harvey et al. (2022)
